The target of this experiment is mouse glycophorin-A on mouse erythrocytes (mouse) (UniProt P14220). Briefly: in vivo, flow cytometry of circulating erythrocytes after intravenous administration. Background: Flow cytometry measures light scatter and fluorescence of single cells or particles in a stream.

On to “8-arm PEG-ERY1 (8-arm PEG-ERY1-ALEXAFLUOR647)”, for which the cell-surface half-life turned out to be 2.2 h.

The record behind these values is US20120178139A1.
